Measured values: patent publication US20130224191A1, “NOTUM PROTEIN MODULATORS AND METHODS OF USE” (priority 2010, published 2013)

B1: macaque Notum-hFc: fusion construct of macaque Notum and human Fc region (protein)
chain: SEGRKTWRRRGQQPPPPPRTEAAPAAGQPVESFPLDFTAVEGNMDSFMAQVKSLAQSLYPCSAQQLNEDLRLHLLLNTSVTCNDGSPAGYYLKESRGSRRWLLFLEGGWYCFNRENCDSRYNTMRRLMSSRDWPRTRTGTGILSSQPEENPYWWNANMVFIPYCSSDVWSGASSKSEKNEYAFMGALIIQEVVRELLGRGLSGAKVLLLAGSSAGGTGVLLNVDRVAEQLEELGYPAIQVRGLADSGWFLDNKQYRHTDCVDTITCAPTEAIRRGIRYWNGVVPERCRRQFQEGEEWNCFFGYKIYPTLRCPVFVVQWLFDEAQLTVDNVHLTGQPVQESQRLYIQNLGRELRHTLKDVPASFAPACLSHEIIIRSHWTDVQVKGTSLPRALHCWDRSLHDSHKNSKTPLKGCPVHLVDSCPWPHCNPSCPTVRDQFTGQEMNVAQFLMHMGFDVQTVAQQQGPEPSKLLGL
modifications: left off: a dimerising Fc or GST
notes: fusion construct of macaque Notum and human Fc region
B2: murine Notum-His: His tagged murine Notum (protein)
chain: SEGRKTWRRRGQQPPQPPPPPPLPQRAEVEPGAGQPVESFPLDFTAVEGNMDSFMAQVKSLAQSLYPCSAQQLNEDLRLHLLLNTSVTCNDGSPAGYYLKESKGSRRWLLFLEGGWYCFNRENCDSRYSTMRRLMSSKDWPHTRTGTGILSSQPEENPHWWNANMVFIPYCSSDVWSGASPKSDKNEYAFMGSLIIQEVVRELLGKGLSGAKVLLLAGSSAGGTGVLLNVDRVAELLEELGYPSIQVRGLADSGWFLDNKQYRRSDCIDTINCAPTDAIRRGIRYWSGMVPERCQRQFKEGEEWNCFFGYKVYPTLRCPVFVVQWLFDEAQLTVDNVHLTGQPVQEGQWLYIQNLGRELRGTLKDVQASFAPACLSHEIIIRSYWTDVQVKGTSLPRALHCWDRSFHDSHKASKTPMKGCPFHLVDSCPWPHCNPSCPTIRDQFTGQEMNVAQFLMHMGFDVQTVAQQQGMEPSKLLGMLSNGN
modifications: left off: small tags and cut ends
B3: murine Notum-hFc: fusion construct of mouse Notum and human Fc region (protein)
chain: SEGRKTWRRRGQQPPQPPPPPPLPQRAEVEPGAGQPVESFPLDFTAVEGNMDSFMAQVKSLAQSLYPCSAQQLNEDLRLHLLLNTSVTCNDGSPAGYYLKESKGSRRWLLFLEGGWYCFNRENCDSRYSTMRRLMSSKDWPHTRTGTGILSSQPEENPHWWNANMVFIPYCSSDVWSGASPKSDKNEYAFMGSLIIQEVVRELLGKGLSGAKVLLLAGSSAGGTGVLLNVDRVAELLEELGYPSIQVRGLADSGWFLDNKQYRRSDCIDTINCAPTDAIRRGIRYWSGMVPERCQRQFKEGEEWNCFFGYKVYPTLRCPVFVVQWLFDEAQLTVDNVHLTGQPVQEGQWLYIQNLGRELRGTLKDVQASFAPACLSHEIIIRSYWTDVQVKGTSLPRALHCWDRSFHDSHKASKTPMKGCPFHLVDSCPWPHCNPSCPTIRDQFTGQEMNVAQFLMHMGFDVQTVAQQQGMEPSKLLGMLSNGN
modifications: left off: a dimerising Fc or GST
notes: fusion construct of mouse Notum and human Fc region
B4: murine Notum: recombinant murine Notum protein, construct not stated (protein)
chain: SEGRKTWRRRGQQPPQPPPPPPLPQRAEVEPGAGQPVESFPLDFTAVEGNMDSFMAQVKSLAQSLYPCSAQQLNEDLRLHLLLNTSVTCNDGSPAGYYLKESKGSRRWLLFLEGGWYCFNRENCDSRYSTMRRLMSSKDWPHTRTGTGILSSQPEENPHWWNANMVFIPYCSSDVWSGASPKSDKNEYAFMGSLIIQEVVRELLGKGLSGAKVLLLAGSSAGGTGVLLNVDRVAELLEELGYPSIQVRGLADSGWFLDNKQYRRSDCIDTINCAPTDAIRRGIRYWSGMVPERCQRQFKEGEEWNCFFGYKVYPTLRCPVFVVQWLFDEAQLTVDNVHLTGQPVQEGQWLYIQNLGRELRGTLKDVQASFAPACLSHEIIIRSYWTDVQVKGTSLPRALHCWDRSFHDSHKASKTPMKGCPFHLVDSCPWPHCNPSCPTIRDQFTGQEMNVAQFLMHMGFDVQTVAQQQGMEPSKLLGMLSNGN
B5: D340A: human Notum with D340A point mutation of the catalytic acidic residue (protein, UniProt Q6P988 20-496, looked up, variant D340A)
Palmitoleoyl-protein …: SEGRKTWRRRGQQPPPPPRTEAAPAAGQPVESFPLDFTAVEGNMDSFMAQVKSLAQSLYPCSAQQLNEDLRLHLLLNTSVTCNDGSPAGYYLKESRGSRRWLLFLEGGWYCFNRENCDSRYDTMRRLMSSRDWPRTRTGTGILSSQPEENPYWWNANMVFIPYCSSDVWSGASSKSEKNEYAFMGALIIQEVVRELLGRGLSGAKVLLLAGSSAGGTGVLLNVDRVAEQLEKLGYPAIQVRGLADSGWFLDNKQYRHTDCVDTITCAPTEAIRRGIRYWNGVVPERCRRQFQEGEEWNCFFGYKVYPTLRCPVFVVQWLFAEAQLTVDNVHLTGQPVQEGLRLYIQNLGRELRHTLKDVPASFAPACLSHEIIIRSHWTDVQVKGTSLPRALHCWDRSLHDSHKASKTPLKGCPVHLVDSCPWPHCNPSCPTVRDQFTGQEMNVAQFLMHMGFDMQTVAQPQGLEPSELLGMLSNGS
B6: D141N: human Notum point mutated at D141 to the macaque residue (protein)
chain: SEGRKTWRRRGQQPPPPPRTEAAPAAGQPVESFPLDFTAVEGNMDSFMAQVKSLAQSLYPCSAQQLNEDLRLHLLLNTSVTCNDGSPAGYYLKESRGSRRWLLFLEGGWYCFNRENCDSRYNTMRRLMSSRDWPRTRTGTGILSSQPEENPYWWNANMVFIPYCSSDVWSGASSKSEKNEYAFMGALIIQEVVRELLGRGLSGAKVLLLAGSSAGGTGVLLNVDRVAEQLEKLGYPAIQVRGLADSGWFLDNKQYRHTDCVDTITCAPTEAIRRGIRYWNGVVPERCRRQFQEGEEWNCFFGYKVYPTLRCPVFVVQWLFDEAQLTVDNVHLTGQPVQEGLRLYIQNLGRELRHTLKDVPASFAPACLSHEIIIRSHWTDVQVKGTSLPRALHCWDRSLHDSHKASKTPLKGCPVHLVDSCPWPHCNPSCPTVRDQFTGQEMNVAQFLMHMGFDMQTVAQPQGLEPSELLGMLSNGS
B7: D141S: human Notum point mutated at D141 to the murine residue (protein)
chain: SEGRKTWRRRGQQPPPPPRTEAAPAAGQPVESFPLDFTAVEGNMDSFMAQVKSLAQSLYPCSAQQLNEDLRLHLLLNTSVTCNDGSPAGYYLKESRGSRRWLLFLEGGWYCFNRENCDSRYSTMRRLMSSRDWPRTRTGTGILSSQPEENPYWWNANMVFIPYCSSDVWSGASSKSEKNEYAFMGALIIQEVVRELLGRGLSGAKVLLLAGSSAGGTGVLLNVDRVAEQLEKLGYPAIQVRGLADSGWFLDNKQYRHTDCVDTITCAPTEAIRRGIRYWNGVVPERCRRQFQEGEEWNCFFGYKVYPTLRCPVFVVQWLFDEAQLTVDNVHLTGQPVQEGLRLYIQNLGRELRHTLKDVPASFAPACLSHEIIIRSHWTDVQVKGTSLPRALHCWDRSLHDSHKASKTPLKGCPVHLVDSCPWPHCNPSCPTVRDQFTGQEMNVAQFLMHMGFDMQTVAQPQGLEPSELLGMLSNGS

Columns and labels:
[1] = tested on: Wnt3A-mediated induction of luciferase in the 293.TCF cells; assay: Wnt3A canonical signaling assay, bioactivity of Notum constructs; format: cell-based, human
Excerpt: To generate a stable population of cells that contain a reporter for the activation of canonical Wnt signaling, HEK 293T cells were transduced with a lentiviral vector, pGreenFirel-TCF (System Biosciences) which encodes a bifunctional GFP and luciferase reporter cassette under the control of a minimal CMV reporter linked to four tandem repeats of the transcriptional response elements for TCF. Transduced cells populations, termed 293.TCF cells, were subsequently used in a Wnt3A canonical signaling assay as follows: 2.5×10^4 293.TCF cells were plated per well of a 96-well tissue culture plate in 50 μL of serum-free DME medium. After 24 hours of serum starvation, 25 μL of various dilutions of conditioned medium (CM) from L/Wnt3A cells (ATCC CRL-2647; Willert, 2003) or undiluted CM from parental L-cells (ATCC CRL-2648) along with 25 μL of DMEM+0.2% FBS were added to each well. Eighteen hours after addition of CM, 100 μL of One-Glo solution (ProMega Corp.) was added to each well. The contents of each well were then mixed thoroughly to lyse the cells, 100 μL of lysate transferred to black 96-well plates, and the luminescence in each well read after 5 mins using a Wallac Victor3 Multilabel Counter (Perkin-Elmer Corp). […] More particularly, as the Wnt3A+ CM media is diluted from 25% down to approximately 3%, activation of the Wnt pathway is reduced with a corresponding decrease in luminescence.
Once the luciferase reporter system was established, assays for determining the bioactivity of various Notum modulators were performed as follows. 2.5×10^4 293.TCF cells were plated per well of a 96-well tissue culture plate in 50 μL of serum-free medium. After 23 hours of serum starvation, 25 μL of DMEM+0.2% FBS containing various Notum modulators at various concentrations (e.g., hNotum-His, hNotum-hFc, hNotum-S232A-His, murine Notum-His, murine Notum-hFc, macaque Notum-hFc, control protein-His or control protein-hFc obtained as per Examples 7, 8 and 13 above), were added to the cells. After 1 hour, 25 μL of Wnt3A or control L-cell CM were added to each well. Eighteen hours after addition of CM, 100 μL of One-Glo solution (ProMega Corp.) was added to each well, the contents of each well mixed thoroughly to lyse the cells, 100 μL of lysate transferred to black 96-well plates, and the luminescence read after 5 minutes.

[2] = Esterase activity of Notum proteins on chromogenic substrates; format: biochemical; details: 1 hour at 37° C.
Experimental: Briefly, PNPA or PNPB were dissolved/diluted in isopropanol to final concentrations of 10 mM. These substrate solutions were diluted 1:10 into assay buffer (0.1% gum arabic, 2.3 mg/mL sodium dexoycholate, 1×PBS) and incubated with defined amounts of hNotum enzyme, and the enzymatic release of the chromophore p-nitrophenol monitored by absorbance measurements at 405 nm.

[3] = 4-MUH fluorescent hydrolase assay, activity of Notum constructs; format: biochemical
Experimental: In addition to the assays described in Examples 23 and 24, a fluorescent esterase substrate, 4-methylumbelliferyl heptanoate (Sigma), can be used to measure the activity of hydrolases using standard assay conditions (Richardson and Smith, 2007, PMID: 17620441; Jacks and Kircher, 1967, PMID: 5582971). Briefly, 4-MUH was dissolved in DMSO to a final concentration of 1.2 mM. This substrate was diluted 1:10 into assay buffer (0.1M Tris, pH 7.5, 50 mM NaCl, 0.05% Brij) and incubated with defined amounts of Notum enzyme or point-mutated Notum enzymes, and enzymatic release of the fluorescent molecule 4-methylumbelliferone monitored (355 nm excitation, 460 nm emission) using a Wallac Victor3 Multilabel Counter (Perkin Elmer).

Molecule | antagonism of Wnt3A-mediated induction of luciferase [1] | esterase activity [2] | hydrolysis of the 4-MUH substrate [3]
B1 | functionally antagonize | – | –
B2 | functionally antagonize | – | –
B3 | functionally antagonize | – | –
B4 | – | display esterase activity | –
B5 | no ability to antagonize | – | no ability to hydrolyze the 4-MUH substrate
B6 | retained bioactivity | – | retained bioactivity
B7 | retained bioactivity | – | retained bioactivity
